Reference: the Human Domainome abundance scans (Beltran et al. 2025)
± gives the uncertainty stated by the source.

B1: POU domain, class 2, transcription factor 1, residues 285 to 354; numbered along this chain, P14859 (parent)
chain: LEELEQFAKTFKQRRIKLGFTQGDVGLAMGKLYGNDFSQTTISRFEALNLSFKNMCKLKPLLEKWLNDAE

Variants of: B1
Assay: abundance fitness (aPCA) (normalised: wild type 0, dead -1); higher = more abundant; growth selection in yeast, the domain comes from the species named
Conditions: Homo sapiens

Abundance fitness: each site, then its substitutions
M29: L -0.016 ± 0.019, P -0.903 ± 0.044, Q -0.497 ± 0.045, R -0.998 ± 0.092, S -0.49 ± 0.026, V 0.031 ± 0.023, W -0.625 ± 0.089, Y -0.512 ± 0.057
G30: A 0.014 ± 0.025, C 0 ± 0.025, D -0.087 ± 0.059, E -0.025 ± 0.053, F 0.014 ± 0.024, H -0.068 ± 0.066, I 0.012 ± 0.026, K -0.034 ± 0.074, L -0.015 ± 0.02, M -0.024 ± 0.04, N -0.113 ± 0.098, P -0.209 ± 0.044, Q 0.102 ± 0.12, R 0.01 ± 0.028, S -0.019 ± 0.026, T -0.028 ± 0.043, W 0.006 ± 0.024, Y 0.002 ± 0.045
K31: A -0.027 ± 0.023, C -0.12 ± 0.047, D -0.029 ± 0.13, E 0.058 ± 0.054, F -0.126 ± 0.066, G -0.066 ± 0.025, H 0.003 ± 0.062, I -0.495 ± 0.31, L -0.166 ± 0.026, M -0.256 ± 0.057, N -0.217 ± 0.11, P -0.115 ± 0.022, Q -0.034 ± 0.038, R 0.018 ± 0.02, S -0.068 ± 0.029, V -0.126 ± 0.028, W -0.323 ± 0.034, Y -0.069 ± 0.13
L32: A -0.006 ± 0.029, D -0.078 ± 0.093, E -0.005 ± 0.034, F -0.193 ± 0.23, G -0.107 ± 0.027, H -0.004 ± 0.047, K 0.031 ± 0.022, N -0.054 ± 0.048, Q -0.012 ± 0.024, R -0.031 ± 0.03, S -0.154 ± 0.18, T 0.005 ± 0.022, V -0.226 ± 0.19
Y33: A -0.045 ± 0.053, C -0.04 ± 0.038, D -0.125 ± 0.051, E -0.047 ± 0.068, F -0.031 ± 0.05, G -0.097 ± 0.055, H 0.031 ± 0.023, I -0.019 ± 0.039, K -0.053 ± 0.043, L -0.008 ± 0.027, M -0.11 ± 0.067, N -0.075 ± 0.034, P -0.104 ± 0.021, Q -0.067 ± 0.028, R -0.103 ± 0.022, S -0.039 ± 0.027, T -0.061 ± 0.024, V -0.151 ± 0.06, W -0.122 ± 0.086
G34: A -0.027 ± 0.025, C -0.023 ± 0.081, D -0.036 ± 0.096, E -0.01 ± 0.028, F -0.276 ± 0.1, H -0.097 ± 0.075, I -0.189 ± 0.12, K -0.039 ± 0.042, L -0.151 ± 0.019, N -0.041 ± 0.1, P 0 ± 0.029, R -0.027 ± 0.026, S -0.1 ± 0.026, T -0.16 ± 0.04, V -0.164 ± 0.026, W -0.301 ± 0.034, Y -0.165 ± 0.12
N35: A -0.011 ± 0.019, D 0.035 ± 0.042, E 0.025 ± 0.022, G 0.053 ± 0.021, H 0.073 ± 0.046, I 0.03 ± 0.1, K 0.006 ± 0.022, M -0.108 ± 0.22, P -0.031 ± 0.02, Q 0 ± 0.021, R 0.008 ± 0.021, S -0.038 ± 0.086, T 0.002 ± 0.02, V -0.057 ± 0.34, Y -0.494 ± 0.36
D36: A -0.049 ± 0.035, C -0.036 ± 0.026, E -0.027 ± 0.039, F -0.19 ± 0.062, G -0.092 ± 0.022, H -0.077 ± 0.038, I -0.006 ± 0.075, K -0.028 ± 0.058, L 0.014 ± 0.041, M -0.121 ± 0.12, N -0.043 ± 0.068, P -0.058 ± 0.047, Q -0.034 ± 0.031, R -0.047 ± 0.023, S -0.05 ± 0.029, V -0.029 ± 0.044, Y -0.037 ± 0.03
F37: A -0.081 ± 0.033, C 0.028 ± 0.046, D 0.006 ± 0.14, E -0.199 ± 0.075, G -0.211 ± 0.027, I -0.011 ± 0.035, K -0.184 ± 0.048, L -0.003 ± 0.017, M -0.011 ± 0.028, N -0.337 ± 0.068, P -0.148 ± 0.02, Q -0.214 ± 0.036, R -0.355 ± 0.032, S -0.119 ± 0.021, T -0.059 ± 0.027, V 0.038 ± 0.029, Y -0.135 ± 0.068
S38: A -0.038 ± 0.031, D 0.048 ± 0.1, E -0.03 ± 0.037, F -0.199 ± 0.34, G 0.023 ± 0.028, K -0.011 ± 0.018, N -0.032 ± 0.046, P -0.041 ± 0.022, Q -0.03 ± 0.021, R -0.061 ± 0.02, T 0.012 ± 0.02, Y -0.271 ± 0.23
Q39: A 0.015 ± 0.02, C -0.037 ± 0.048, D 0.008 ± 0.036, E 0.013 ± 0.03, F -0.14 ± 0.1, G 0.005 ± 0.02, H 0.028 ± 0.039, I -0.057 ± 0.062, K 0.014 ± 0.04, L -0.026 ± 0.036, M -0.056 ± 0.066, N -0.055 ± 0.062, P -0.011 ± 0.021, R 0.005 ± 0.021, S 0.015 ± 0.03, T 0.008 ± 0.035, V -0.033 ± 0.029, W -0.005 ± 0.037
T40: C 0.019 ± 0.097, D -0.15 ± 0.11, E -0.354 ± 0.25, F 0.067 ± 0.068, G -0.028 ± 0.06, H -0.035 ± 0.072, I -0.142 ± 0.078, K -0.071 ± 0.087, L -0.001 ± 0.019, M -0.059 ± 0.039, N 0.004 ± 0.13, P -0.032 ± 0.023, Q 0.016 ± 0.041, R 0.014 ± 0.024, S -0.007 ± 0.032, W -0.054 ± 0.049, Y 0.077 ± 0.21
T41: A -0.02 ± 0.025, C -0.08 ± 0.069, D -0.018 ± 0.072, E -0.163 ± 0.089, F -0.1 ± 0.055, H -0.052 ± 0.052, I -0.067 ± 0.058, K 0.022 ± 0.086, L -0.023 ± 0.021, M -0.029 ± 0.036, N -0.029 ± 0.075, P -0.209 ± 0.021, Q -0.028 ± 0.033, R -0.098 ± 0.024, S 0.005 ± 0.023, V -0.029 ± 0.032, W -0.088 ± 0.039
I42: A -0.655 ± 0.021, C -0.336 ± 0.16, D -1.08 ± 0.1, G -1.09 ± 0.058, H -0.983 ± 0.17, K -0.789 ± 0.08, L -0.074 ± 0.032, M -0.276 ± 0.047, N -0.805 ± 0.091, P -0.877 ± 0.04, Q -0.948 ± 0.071, R -0.869 ± 0.051, S -0.997 ± 0.062, W -0.655 ± 0.079, Y -0.674 ± 0.25
S43: A 0.035 ± 0.051, C -0.033 ± 0.086, D -0.161 ± 0.14, E -0.013 ± 0.088, F -0.088 ± 0.03, G -0.156 ± 0.16, H -0.077 ± 0.042, I -0.064 ± 0.05, K 0.121 ± 0.11, L -0.067 ± 0.018, M -0.013 ± 0.036, N 0.005 ± 0.18, P -0.03 ± 0.027, Q 0.029 ± 0.028, R 0.018 ± 0.037, T -0.007 ± 0.039, W -0.086 ± 0.05, Y -0.053 ± 0.055
R44: A 0.013 ± 0.035, C -0.053 ± 0.15, D -0.058 ± 0.13, E -0.059 ± 0.065, H -0.027 ± 0.048, I -0.794 ± 0.14, K -0.048 ± 0.052, L -0.026 ± 0.018, M -0.032 ± 0.032, N -0.165 ± 0.17, P -1.02 ± 0.078, Q 0.042 ± 0.027, S 0.015 ± 0.036, T -0.089 ± 0.061, W -0.253 ± 0.092, Y -0.155 ± 0.1
F45: A -0.62 ± 0.096, C -0.451 ± 0.081, E -1.01 ± 0.11, H -0.952 ± 0.052, I -0.382 ± 0.043, K -0.97 ± 0.052, L -0.115 ± 0.019, M -0.137 ± 0.022, N -1.04 ± 0.086, P -1.04 ± 0.07, Q -1.02 ± 0.042, R -1.01 ± 0.043, S -0.864 ± 0.055, T -0.847 ± 0.058, V -0.429 ± 0.034, W -0.247 ± 0.036, Y -0.133 ± 0.046
E46: C -0.801 ± 0.13, D -0.754 ± 0.17, F -1 ± 0.23, G -0.929 ± 0.056, H -0.856 ± 0.23, I -0.84 ± 0.15, K -0.658 ± 0.1, L -1.01 ± 0.048, N -0.783 ± 0.17, Q -0.851 ± 0.085, T -0.934 ± 0.072, V -0.852 ± 0.058, W -0.698 ± 0.054, Y -1.02 ± 0.32
A47: D 0.092 ± 0.087, E 0.055 ± 0.027, G 0.001 ± 0.024, H -0.107 ± 0.059, K -0.015 ± 0.028, L 0.054 ± 0.28, N 0.033 ± 0.11, P -0.964 ± 0.047, Q 0.017 ± 0.022, R -0.044 ± 0.022, S -0.048 ± 0.14
L48: A -0.054 ± 0.081, C 0.001 ± 0.086, F -0.054 ± 0.039, I 0.014 ± 0.04, K 0.084 ± 0.036, M -0.007 ± 0.035, N -0.03 ± 0.059, P -0.336 ± 0.026, Q 0.006 ± 0.031, R 0.004 ± 0.058, S -0.005 ± 0.023, T -0.004 ± 0.032, V -0.085 ± 0.074, W -0.142 ± 0.065, Y -0.053 ± 0.046
N49: C -0.086 ± 0.1, D 0.033 ± 0.21, E 0.043 ± 0.045, F -0.279 ± 0.056, G -0.002 ± 0.053, H -0.063 ± 0.074, I 0.025 ± 0.06, K -0.045 ± 0.05, L -0.029 ± 0.021, P -0.65 ± 0.026, Q 0.007 ± 0.036, R -0.079 ± 0.049, S -0.004 ± 0.023, T 0.03 ± 0.029, V -0.052 ± 0.032, W -0.218 ± 0.047, Y -0.063 ± 0.086
L50: A -0.121 ± 0.024, C 0.007 ± 0.036, D -0.026 ± 0.051, E -0.041 ± 0.044, G -0.074 ± 0.024
